From patent publication EP4768503A1
pEC50: −log10 of the molar value.

Target: amyloid precursor protein (APP) on HEK293-APP stable transfected cells (UniProt P05067)
Experiment: flow cytometry on HEK293-APP cells, four-parameter fit of MFI

amyloid precursor protein (APP) on HEK293-APP stable transfected cells, sequence (P05067 18-770): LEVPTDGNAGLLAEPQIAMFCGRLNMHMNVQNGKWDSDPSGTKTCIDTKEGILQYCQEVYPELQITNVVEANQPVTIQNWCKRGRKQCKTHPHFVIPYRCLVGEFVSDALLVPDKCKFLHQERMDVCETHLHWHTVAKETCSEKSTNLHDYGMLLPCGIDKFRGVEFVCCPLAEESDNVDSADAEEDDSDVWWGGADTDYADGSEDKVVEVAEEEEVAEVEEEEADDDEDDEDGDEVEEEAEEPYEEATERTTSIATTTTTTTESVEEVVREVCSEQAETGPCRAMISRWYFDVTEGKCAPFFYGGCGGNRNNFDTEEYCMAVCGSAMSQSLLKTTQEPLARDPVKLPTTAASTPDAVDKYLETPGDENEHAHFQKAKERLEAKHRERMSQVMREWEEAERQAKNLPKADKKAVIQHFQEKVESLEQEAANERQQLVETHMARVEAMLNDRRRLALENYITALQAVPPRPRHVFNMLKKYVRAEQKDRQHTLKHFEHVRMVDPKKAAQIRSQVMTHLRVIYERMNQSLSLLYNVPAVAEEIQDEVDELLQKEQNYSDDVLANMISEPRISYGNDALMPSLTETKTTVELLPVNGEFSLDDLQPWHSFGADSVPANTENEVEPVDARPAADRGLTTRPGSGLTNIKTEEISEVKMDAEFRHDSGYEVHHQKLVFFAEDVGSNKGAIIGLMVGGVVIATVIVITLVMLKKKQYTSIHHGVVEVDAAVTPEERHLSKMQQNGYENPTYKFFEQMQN

Lecanemab (antibody)
pEC50: 8.17
